Results from patent US20200392225A1.

T1: human NPR3 (counter target) (human) (UniProt P17342)
T1 sequence (looked up): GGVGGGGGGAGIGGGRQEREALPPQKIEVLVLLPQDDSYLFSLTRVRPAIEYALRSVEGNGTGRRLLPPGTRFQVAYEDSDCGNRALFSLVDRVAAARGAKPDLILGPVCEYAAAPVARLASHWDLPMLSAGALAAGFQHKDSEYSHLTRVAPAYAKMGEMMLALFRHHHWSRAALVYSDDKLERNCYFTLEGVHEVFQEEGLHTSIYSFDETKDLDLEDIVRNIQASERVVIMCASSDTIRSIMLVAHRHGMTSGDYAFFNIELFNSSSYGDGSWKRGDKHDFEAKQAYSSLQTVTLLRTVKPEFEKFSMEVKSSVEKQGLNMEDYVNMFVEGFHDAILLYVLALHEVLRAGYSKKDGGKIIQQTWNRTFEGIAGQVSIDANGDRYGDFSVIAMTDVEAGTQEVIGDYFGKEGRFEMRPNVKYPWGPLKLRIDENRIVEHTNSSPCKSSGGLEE

T2: human NPR3 in the presence of ANP (human) (UniProt P17342)
T2 sequence (looked up): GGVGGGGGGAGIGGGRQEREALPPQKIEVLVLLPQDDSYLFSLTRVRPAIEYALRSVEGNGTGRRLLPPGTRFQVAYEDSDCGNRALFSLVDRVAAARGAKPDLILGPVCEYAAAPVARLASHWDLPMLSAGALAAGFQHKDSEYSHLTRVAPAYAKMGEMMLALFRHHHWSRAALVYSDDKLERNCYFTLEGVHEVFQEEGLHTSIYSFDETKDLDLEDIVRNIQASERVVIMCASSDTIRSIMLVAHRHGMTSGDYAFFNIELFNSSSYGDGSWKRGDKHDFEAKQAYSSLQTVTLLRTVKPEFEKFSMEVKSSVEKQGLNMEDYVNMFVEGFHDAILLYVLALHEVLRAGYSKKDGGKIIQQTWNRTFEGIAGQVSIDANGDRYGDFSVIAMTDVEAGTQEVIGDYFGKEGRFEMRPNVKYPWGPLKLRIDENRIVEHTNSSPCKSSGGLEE
T2 sequence (peptide, looked up): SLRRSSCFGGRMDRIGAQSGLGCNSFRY

T3: rat NPR1, recombinant antigen (rat) (UniProt P18910)
T3 sequence: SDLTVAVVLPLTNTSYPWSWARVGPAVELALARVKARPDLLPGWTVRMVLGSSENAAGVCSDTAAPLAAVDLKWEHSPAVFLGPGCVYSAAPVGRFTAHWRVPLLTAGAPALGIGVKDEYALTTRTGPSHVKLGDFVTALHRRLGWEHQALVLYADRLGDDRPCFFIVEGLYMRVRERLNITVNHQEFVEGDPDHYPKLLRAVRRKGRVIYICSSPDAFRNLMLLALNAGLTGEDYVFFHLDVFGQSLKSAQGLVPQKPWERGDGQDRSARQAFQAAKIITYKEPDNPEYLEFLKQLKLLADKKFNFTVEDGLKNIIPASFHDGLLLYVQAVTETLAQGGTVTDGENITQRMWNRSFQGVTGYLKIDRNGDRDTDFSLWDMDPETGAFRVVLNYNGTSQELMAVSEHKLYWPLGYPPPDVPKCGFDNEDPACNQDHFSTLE


Columns and labels:
[1] = target: human NPR1 W74R mutant in the presence of ANP (human) (UniProt P01160); assay: ELISA, IgG titration, +100 nM ANP
[2] = target: human NPR1 expressed on CHO-K1 cells in the presence of ANP (human) (UniProt P01160); assay: flow cytometry, 2 uM IgG, +100 nM ANP
[3] = target: T1, human NPR3 (counter target) (human); assay: ELISA, 1 uM IgG
[4] = target: human NPR1 W74R mutant in the presence of ANP (human) (UniProt P01160); assay: ELISA, 1 uM IgG, +100 nM ANP
[5] = target: T2, human NPR3 in the presence of ANP (human); assay: ELISA, 1 uM IgG, +100 nM ANP
[6] = target: T3, rat NPR1, recombinant antigen (rat); assay: ELISA, 1 uM IgG
[7] = target: human NPR1 W74R mutant in the presence of ANP (human) (UniProt P01160); assay: ELISA, IgG titrated on the antigen with 250 fold molar excess of ANP [cont.]

| Binder | EC50 [1] [nM] | flow cytometry S/BG [2] [S/BG] | ELISA IgG binding at 1 uM IgG (unit not given) [3] | ELISA IgG binding at 1 uM IgG (unit not given) [4] | ELISA IgG binding at 1 uM IgG (unit not given) [5] | ELISA IgG binding at 1 uM IgG (unit not given) [6] | EC50 (read off the curve) [7] [nM] |
| --- | --- | --- | --- | --- | --- | --- | --- |
| WW06 IgG (WW06_LALA) (antibody, V domains shown) VH: QVQLVQSGAEVKKPGESLKISCKGSGYSFTSYWIAWVRQMPGKGLEWMGRIDPDNSYTRYSPSFQGQVTISADKSISTAYLQWSSLKASDTAMYYCARWLSPGYALGEQPAGMDHWGQGTLVTVSS VL: DIVLTQPPSVSGAPGQRVTISCTGSSSNIGAGYAVHWYQQLPGTAPKLLIYSNNKRPSGVPDRFSGSKSGTSASLAITGLQAEDEADYYCQSYDLQKSSRVFGGGTKLTVLG | 0.8 | 1.1 | – | – | – | – | – |
| YY05 IgG (YY05_LALA) (antibody, V domains shown) VH: EVQLVQSGAEVKKPGESLKISCKGSGYSFTSYWISWVRQMPGKGLEWMGIIYPGTSYTRYSPSFQGQVTISADKSISTAYLQWSSLKASDTAMYYCARGAVAGQLGFDHWGQGTLVTVSS VL: QSVLTQPPSVSGAPGQRVTISCTGSSSNIGAGYDVHWYQQLPGTAPKLLIYGNSNRPSGVPDRFSGSKSGTSASLAITGLQAEDEADYYCQSYYTSSHGPVFGGGTKLTVLG | – | – | 7 | 23 | 4 | – | – |
| YY07 IgG (YY07_LALA) (antibody, V domains shown) VH: EVQLVQSGAEVKKPGESLKISCKGSGYSFTSYWISWVRQMPGKGLEWMGIIYPGTSYTRYSPSFQGQVTISADKSISTAYLQWSSLKASDTAMYYCARGSLPGLLGFDHWGQGTLVTVSS VL: QSVLTQPPSVSGAPGQRVTISCTGSSSNIGAGYDVHWYQQLPGTAPKLLIYGNSNRPNGVPDRFSGSKSGTSASLAITGLQAEDEADYYCQSYDSPTSSSVFGGGTKLTVLG | – | – | – | 20 | 5 | – | – |
| YY06 IgG (YY06_LALA) (antibody, V domains shown) VH: EVQLLESGGGLVQPGGSLRLSCAASGFTFSSYAISWVRQAPGKGLEWVSAISGSGGSTYYAESVKGRFTISRDNSKNTLYLQMNSLRAEDTAVYYCARPYLGDRRSYGFDHWGQGTLVTVSS VL: QSALTQPASVSGSPGQSITISCTGTSSDVGSYNLVSWYQQHPGKAPKLMIYEGSKRPSGVSNRFSGSKSGNTASLTISGLQAEDEADYYCSSYGFHIVVVVFGGGTKLTVLG | – | – | 6 | 86 | 6 | 3 | 20 |
